# Laboratory results published in patent US20110206701A1 (AbbVie / Abbott, published 2011).
# B1: HuLuc63 (elotuzumab), humanized anti-CS1 antibody (antibody, V domains shown)
# VH: EVQLVESGGGLVQPGGSLRLSCAASGFDFSRYWMSWVRQAPGKGLEWIGEINPDSSTINYAPSLKDKFIISRDNAKNSLYLQMNSLRAEDTAVYYCARPDGNYWYFDVWGQGTLVTVSS
# VL: DIQMTQSPSSLSASVGDRVTITCKASQDVGIAVAWYQQKPGKVPKLLIYWASTRHTGVPDRFSGSGSGTDFTLTISSLQPEDVATYYCQQYSSYPYTFGQGTKVEIK
# Target: T1, CS1 (CD2-subset 1) (human, UniProt Q9NQ25 23-335)
# T1 construct: whole, on cells; In the immunohistochemistry the protein stood in formalin-fixed, paraffin-embedded tissue sections; also called SLAMF7; CRACC
# Test: flow cytometry on normal blood NK and NK/T cells, directly conjugated antibody
binder,measurement,value
B1,binding result,binds
